Results taken from article PMC7846742 (2021).

B1: ODC ΔN 4KR (enzyme)
chain: DCHFLDEGFTAKDILDQKINEVSSSDDKDAFYVADLGDILKKHLRWLKALPRVTPFYAVKCNDSRAIVRTLAATGTGFDCASRTEIQLVQSLGVPPERIIYANPCKQVSQIRYAANNGVQMMTFDSEVELMKVARAHPKAKLVLRIATDDSKAVCRLSVKFGATLRTSRLLLERAKELNIDVVGVSFHVGSGCTDPETFVQAISDARCVFDMGAEVGFSMYLLDIGGGFPGSEDVKLKFEEITGVINPALDKYFPSDSGVRIIAEPGRYYVASAFTLAVNIIAKKIVLKEQTGSDDEDESSEQTFMYYVNDGVYGSFNCILYDHAHVKPLLQKRPKPDEKYYSSSIWGPTCDGLDRIVERCDLPEMHVGDWMLFENMGAYTVAAASTFNGFQRPTIYYVMSGPAWQLMQQFQNPDFPPEVEEQDASTLPVSCAWESGMKRHRAACASASIN
B2: His6-ODC-Ctag (human Ornithine Decarboxylase) (enzyme)
chain: NNFGNEEFDCHFLDEGFTAKDILDQKINEVSSSDDKDAFYVADLGDILKKHLRWLKALPRVTPFYAVKCNDSKAIVKTLAATGTGFDCASKTEIQLVQSLGVPPERIIYANPCKQVSQIKYAANNGVQMMTFDSEVELMKVARAHPKAKLVLRIATDDSKAVCRLSVKFGATLRTSRLLLERAKELNIDVVGVSFHVGSGCTDPETFVQAISDARCVFDMGAEVGFSMYLLDIGGGFPGSEDVKLKFEEITGVINPALDKYFPSDSGVRIIAEPGRYYVASAFTLAVNIIAKKIVLKEQTGSDDEDESSEQTFMYYVNDGVYGSFNCILYDHAHVKPLLQKRPKPDEKYYSSSIWGPTCDGLDRIVERCDLPEMHVGDWMLFENMGAYTVAAASTFNGFQRPTIYYVMSGPAWQLMQQFQ

Target: AviTag-His6-OAZ-GSY-SPM-Ctag (wt, with C175A) (human | Neisseria meningitidis …, UniProt Q9JYV5 414-657, biotin on the AviTag)
Assay: SPR

Row | Binder | Kd [nM] | koff [s⁻¹]
1 | B1 | 22 | 0.0024
2 | B2 |  | 0.0028
